Test results published in US20220251222A1, “IL-6Ralpha/IL-8R BISPECIFIC BINDING AGENTS FOR INHIBITING CANCER CELL MIGRATION” (The Johns Hopkins University, priority 2019, published 2022).

Columns and labels:
[1] = system: IL-6-mediated phosphorylation of STAT3; test: IL-6 signaling inhibition assay (STAT3 phosphorylation) in HepG2 cells; assay type: cell-based, human; details: IL-6 10 nM, 20 min at 37° C.
Procedure: HepG2 cells were then fixed with 1.6% PFA, permeabilized with methanol and incubated with 1:50 dilution of Alexa Fluor 647 conjugated anti-pSTAT3 antibody (BD Biosciences, clone 4/P-STAT3) in PBSA for 2 h at room temperature. […] IC50 values were calculated using a first order logistic fitting models in GraphPad Prism data analysis software. Mean fluorescence intensity (MFI) of unstimulated cells was subtracted. Experiments were conducted in triplicate and performed twice times with similar results.

IL-8R = biological target: T1, IL-8R (Homo sapiens, UniProt P25025); test: Cell surface binding on IL-6Rα−/IL-8R+ HEK 293T cells (flow cytometry); details: 2 hr at 4° C.
T1 construct: expressed in transfected cells; host or cells: HEK 293T, lentiviral transduction (pCDH backbone)
T1 sequence (P25025 1-360): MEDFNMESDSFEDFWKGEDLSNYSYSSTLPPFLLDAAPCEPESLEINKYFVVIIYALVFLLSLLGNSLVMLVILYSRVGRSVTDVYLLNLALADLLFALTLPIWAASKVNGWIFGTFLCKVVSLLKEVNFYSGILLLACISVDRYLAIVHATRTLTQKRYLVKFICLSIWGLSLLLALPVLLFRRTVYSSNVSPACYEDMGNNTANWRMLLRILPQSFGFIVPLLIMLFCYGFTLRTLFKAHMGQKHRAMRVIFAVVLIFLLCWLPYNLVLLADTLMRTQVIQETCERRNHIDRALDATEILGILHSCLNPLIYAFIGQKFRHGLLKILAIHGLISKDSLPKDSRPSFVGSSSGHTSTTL
From the text: GeneJuice (Sigma Aldrich) was used as the transfection reagent.
Mean fluorescence intensity (MFI) of unstimulated cells was subtracted.

IL-6/IL-6Rα interaction = biological target: T2, IL-6/IL-6Rα interaction (Homo sapiens, UniProt P08887); test: Yeast cell surface competition of IL-6/IL-6Rα binding; details: IL-6-displaying yeast, biotinylated IL-6Rα ECD 300 nM
T2 construct: residues 89-303 of the mature protein; hexahistidine (C); made in house; host or cells: HEK 293F (IL-6Rα ECD)
T2 sequence (P08887 108-322): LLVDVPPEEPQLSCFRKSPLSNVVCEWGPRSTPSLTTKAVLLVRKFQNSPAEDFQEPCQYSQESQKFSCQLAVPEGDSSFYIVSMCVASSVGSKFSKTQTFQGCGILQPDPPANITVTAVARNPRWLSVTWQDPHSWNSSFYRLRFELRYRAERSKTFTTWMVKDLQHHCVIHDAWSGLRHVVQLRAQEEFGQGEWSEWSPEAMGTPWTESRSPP
Procedure: Approximately 1×10^5 human IL-6-displaying yeast per well were plated in a 96-well plate and washed with PBSA. Yeast cells were incubated with saturating concentrations of biotinylated human IL-6Rα (300 nM) and serial dilutions of unlabeled competitor antibody (either the anti-IL-6R antibody tocilizumab, the anti-IL-8R antibody 10H2, BS1, or BS2) in PBSA for 2 hours at room temperature. Cells were then washed and stained with a 1:200 dilution of Alexa647-conjugated streptavidin (Thermo) in PBSA for 15 min at 4° C. Cells were washed again and assessed for human IL-6Rα binding on a CytoFLEX flow cytometer (Beckman Coulter). Background-subtracted fluorescent signal as a fraction of receptor subunit binding in the absence of competitor antibody was plotted. Curves were fitted to a first order logistic model and half maximal inhibitory concentrations (IC50s) were computed using GraphPad Prism. Assays were performed in triplicate and repeated two times with consistent results.

IL-6 binding to IL-6Rα = biological target: T3, IL-6 binding to IL-6Rα (Homo sapiens, UniProt P08887); test: IL-6 cell surface binding inhibition on IL-6Rα+/IL-8R− HEK 293T cells; details: IL-6Rα+/IL-8R− 293 T cells, biotinylated IL-6 100 nM
T3 construct: expressed in transfected cells; host or cells: HEK 293T, lentiviral transduction (IL-6Rα+/IL-8R−)
T3 sequence (P08887 20-468): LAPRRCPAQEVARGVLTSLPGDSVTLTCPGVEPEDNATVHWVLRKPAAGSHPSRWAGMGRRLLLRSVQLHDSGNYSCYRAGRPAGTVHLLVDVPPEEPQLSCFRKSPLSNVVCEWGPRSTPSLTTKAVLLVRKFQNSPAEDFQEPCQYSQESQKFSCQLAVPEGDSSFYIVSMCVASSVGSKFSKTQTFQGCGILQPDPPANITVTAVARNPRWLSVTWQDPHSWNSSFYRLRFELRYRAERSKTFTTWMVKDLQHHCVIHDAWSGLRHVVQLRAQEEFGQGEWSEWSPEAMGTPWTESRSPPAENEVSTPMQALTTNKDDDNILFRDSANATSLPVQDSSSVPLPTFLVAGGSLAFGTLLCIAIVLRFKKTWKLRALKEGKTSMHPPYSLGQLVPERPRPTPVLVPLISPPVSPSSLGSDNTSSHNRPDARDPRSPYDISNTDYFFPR
Procedure: Cells were then washed and incubated with 1:200 dilution of Alexa Fluor 647-conjugated streptavidin (Fisher Scientific, cat #: S21374) in PBSA for 15 min at 4° C. […] Curves were fitted to a first-order logistic model and IC50 values were calculated using GraphPad Prism data analysis software. Mean fluorescence intensity (MFI) of unstimulated cells was subtracted. […]

human IL-6Rα ECD = biological target: T4, human IL-6Rα ECD (Homo sapiens, UniProt P08887); test: Bio-layer interferometry (BLI) binding to immobilized IL-6Rα ECD; details: immobilized biotinylated IL-6Rα ECD, PBSA, 25° C., equilibrium titration
T4 construct: residues 89-303 of the mature protein; hexahistidine (C); made in house; host or cells: HEK 293F
T4 sequence (P08887 108-322): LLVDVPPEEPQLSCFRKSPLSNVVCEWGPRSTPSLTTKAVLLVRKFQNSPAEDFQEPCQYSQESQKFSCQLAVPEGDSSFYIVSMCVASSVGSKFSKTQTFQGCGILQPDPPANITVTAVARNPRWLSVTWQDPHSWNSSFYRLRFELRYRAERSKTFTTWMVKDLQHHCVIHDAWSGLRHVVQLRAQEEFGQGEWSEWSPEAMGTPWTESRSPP
Procedure: Biotinylated human IL-6Rα ECD was immobilized to streptavidin-coated tips for analysis on an Octet® Red96 BLI instrument (ForteBio). Less than 5 signal units (nm) of receptor was immobilized to minimize mass transfer effects. Tips were exposed to serial dilutions of the anti-IL-6R antibody tocilizumab, the anti-IL-8R antibody 10H2, BS1, or BS2 in a 96-well plate for 300 s and dissociation was measured for 600 s. Surface regeneration for all interactions was conducted using 15 s exposure to 0.1 M glycine pH 3.0. Experiments were carried out in PBSA (phosphate-buffered saline [PBS] pH 7.3 plus 0.1% bovine serum albumin [BSA, Thermo]) at 25° C. Data was visualized and processed using the Octet® Data Analysis software version 7.1 (ForteBio). Equilibrium titration curve fitting and equilibrium dissociation constant (KD) value determination was implemented in GraphPad Prism software using a first-order logistic model. Experiments were reproduced two times with similar results.

Human IL-6 = biological target: T5, Human IL-6 (Homo sapiens, UniProt P05231); test: Yeast cell surface affinity titration of IL-6Rα ECD on IL-6-displaying yeast; assay type: binding; details: 2 hours at room temperature, flow cytometry; read-out: KD of soluble IL-6Rα ECD on IL-6-displaying yeast
T5 construct: Human IL-6 (residues 3-185) was cloned into the pCT302 vector; made in house; host or cells: yeast (surface display)
Procedure: Human IL-6 (residues 3-185) was cloned into the pCT302 vector and presented on the surface of yeast, as described previously. (See Boder E T, Wittrup K D. Yeast surface display for screening combinatorial polypeptide libraries. Nat Biotechnol. 1997 June; 15(6):553-557. PMID: 9181578). Yeast displaying human IL-6 were incubated in PBSA containing serial dilutions of recombinant IL-6Rα ECD for 2 hours at room temperature. Cells were then washed and stained with a 1:200 dilution of Alexa647-conjugated streptavidin (Thermo) in PBSA for 15 min at 4° C. After a final wash, cells were analyzed for antibody binding using a CytoFLEX flow cytometer (Beckman Coulter).

T5 sequence (P05231 30-212): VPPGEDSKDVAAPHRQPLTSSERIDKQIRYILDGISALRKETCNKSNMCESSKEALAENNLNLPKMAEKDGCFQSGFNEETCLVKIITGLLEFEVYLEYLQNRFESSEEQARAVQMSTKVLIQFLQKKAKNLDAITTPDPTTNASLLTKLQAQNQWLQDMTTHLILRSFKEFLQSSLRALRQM

B1: 10H2: anti-IL-8RB monoclonal antibody, expressed as hIgG1 (antibody, V domains shown)
VH: EVQLVETGGRLVQPKGSLKLSCAVSGITFKTNAMNWVRQAPGKGLEWVARIRTKSYNYATYYADSVKDRFTISRDDSQSILYLQMNNLKTEDTAMYHCVREGRWGQGTLVTVSA
VL: QAVVTQESALTTSPGETVTLTCRSSTGAVTTSNYANWVQEKPDHLFTGLIGGTNNRPPGVPARFSGSLIGDKAALTITGAQIEDEAIYFCALWYSNHLVFGGGTKLTVL
[1]
  IC50, inhibition of STAT3 phosphorylation: did not effect inhibition
IL-8R
  KD, binding to IL-8R on cells: only recognized IL-8R^+ cells
IL-6/IL-6Rα interaction
  IC50, inhibition of IL-6/IL-6Rα binding: did not compete
IL-6 binding to IL-6Rα
  IC50, competition with IL-6 binding to IL-6Rα: no inhibitory effects
Human IL-6Rα ECD
  binding affinity (KD) to IL-6Rα via BLI: did not engage IL-6Rα

B2: IL-6Rα ECD: recombinant human IL-6Rα extracellular domain, residues 89-303, biotinylated (protein)
chain: LLVDVPPEEPQLSCFRKSPLSNVVCEWGPRSTPSLTTKAVLLVRKFQNSPAEDFQEPCQYSQESQKFSCQLAVPEGDSSFYIVSMCVASSVGSKFSKTQTFQGCGILQPDPPANITVTAVARNPRWLSVTWQDPHSWNSSFYRLRFELRYRAERSKTFTTWMVKDLQHHCVIHDAWSGLRHVVQLRAQEEFGQGEWSEWSPEAMGTPWTESRSPPLNDIFEAQKIEWHEHHHHHH
Human IL-6
  Kd: 88 nM
